Results on 50 sequences are retold here after the domain aggregation screens of Martell et al. (2025).

The data set in a line: soluble fraction after stress (log2 fold change); higher = more stays soluble; pooled small domains, quantitative proteomics. To be noted: stress: 50 degC. Summed up:
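The stress applied to every library was 50°C. These custom libraries of small protein domains were pooled and measured at high throughput with quantitative proteomics as the read-out. Aggregation propensity is expressed as the base-two logarithm of the fold change in how much of each protein remains soluble. The higher the value, the more of that protein stays in solution.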

For “HMNSHLEEGRHGLQIGDPGIVRARIESDPEGETDMPVVVIDGRNISWNEFGRMVATYTGFQFKLEM”, the “soluble fraction (log2)” value was -0.515.
Consider “HMEDEVYFVPSPASRFNPWIAALASRRVPYRVEYDGAERRIAVPAGYAEKAGEELAAYERINHAWPR”, for which the “soluble fraction (log2)” value is -0.271.
“HMTVMTGSQRRKKILELMRDAKEPLSGGALGKETGVSRHVVVQDIALLRTQGYPIVATARGYIINE”: the “soluble fraction (log2)” value is -0.212.
For the sequence “HMYRYTTFKVKEADTLLPFIQKSLNGISHNRAKAILTGGGVLVDKKITRAYDFALRPGMTVEISKSKP”, the “soluble fraction (log2)” value was -0.103.
With “HMDNITIYSSNGKIYVNAIGGEKIELFNITGQKVAEKVAVSGINVLDAVYDITLVKVGSKVVKVV”, the “soluble fraction (log2)” value is -0.123.
The figure for “HMVERRVRFTVAPGNAGLRLDLFLTAREIGLSRTQVGRAVDEGQIQVNGRPGRAGRKLKTGDVVAIVLPA” is -0.783; for “HMKLRLGVNIDPVATVRNARGSAYPDPVRAAIIAQEAGADGITAHLREDRRHIVDQDITSIIKAIDIPLNF” it is -0.0391.
The figure for “HMSADIGAEKAKTIALNHAGVSASNAVFLHAKLDYDDGRRTYEVEFYSGSKEYDYEIDAATGEILSYDFD” is -0.777.
The figure for “HMRINIVKSKNAEQLYIIHSYRINGKNTSKIYKKLGTMADLLPLHNHDRDQVLAWAKEQARLATEQYDQEN” is -0.855; for “HMQFETVQDAFNHYRNASLEEIESRAAEIKGIIESDPEADVRALNIEIEGLHQAKQNILEKQKTK” it is -0.0753; for “HMATEVEVPDVVGRQMALATQLLEARKLRVNVAEIYDEKTPPGQVVSQSPEAGSSVKEERVVTIYVSR” it is -0.0321.
Take “HMSVLSVASKNQAINPGQVVALLKDGIKLNDDGRVEILDNNNNIRYNEKGNLLSIEERVKEFLDANPHFRQ”: the “soluble fraction (log2)” value is -0.368.
Turning to “HMDEDTWKLYKRAYKKYYARYMKGNMSEEAFKTWAAQAARDRDAAIEQVKAALDENLKAQVIERLKEELNR”, the “soluble fraction (log2)” value was -0.407.
As for “HMLEKDIGKAITILRKSYQLSISAFSMRTGYSRVHISEVESGKRKATDELISVIRNVFHLDSNWPF”, the “soluble fraction (log2)” value is -1.47.
On to “HMRPTVNETQIREVFRSILGREVDPEGLRHYLGQAAKGWSIDQIRADVNNSQEAHQRRAELARQAEELK”, for which the “soluble fraction (log2)” value came out at 0.181.
As for “HMNSVTLEHIVYDFRVFNMLKGSGINDIDELIKAAEDGRLFKIIGSNLTYKRIKKSAAEFGVILPDKPG”, the “soluble fraction (log2)” value was -0.351.
Take “HMPYPSPADLARMDELIAWVKDEGRLPRDRSGQRSERSMARWLAARRREAAEGTLDPAYRDGLAQVPGWR”: the “soluble fraction (log2)” value was -0.368.
Turning to “HMAPGASEVPDLTSLPAREALLRLTKLGLLPEMEGTGRLVRQQPAAGTRVPKGSKVHLVFEPG”, the “soluble fraction (log2)” value is 0.0613.
Consider “HMDLDYSGIMNVLNQKYHITFYNNKKIQNLMPKLMIIMGYNSIINEIGHSKSLKALINSFEEKLKSYILT”, for which the “soluble fraction (log2)” value is -3.02.
The figure for “HMKSVLDDVAGLGPVRKKALLKAMGGFTRLRAASLDDILAVRAVPEEVAREVFAVLAQYNSVRNNDISE” is -0.273; for “HMQKEIKVPDVANMALSEAVEKLQNEGFKVADEQKEVSSDEIEEGKVVKTSPVAGTKKTKGSEITIYISSG” it is -0.0254; for “HMENTVVMPNLLGKTMTEAKIELKDLSISITLKGSENSSQYAAGQIISQSVDSGTRVAVGSSVEVTIAGS” it is 0.0377.
The figure for “HMLSGNLTADAHVHRGLQALSDGRNEDALVDFTKATEVQADFAEAWNKRATVNYLLGRYDAAVLDIQKTLE” is 0.19.
For “HMQDTYQVKLLTNLNIRKSPNGTIVQKGGAKKGIIYTIVETSGTWGRLKSNAGWISVSDKYVTK”, the “soluble fraction (log2)” value was -3.43.
Regarding “HMKNVENIILEQLKKNIYDDLNNASFEEIILIDAEKSIYKGTIKANYIEYNFKINLSTGEILKWKLK”, the “soluble fraction (log2)” value was -0.117.
In the case of “HMSSVMMPDLTGESAIVAMERLQQLGLLPKVEEVDSYREPGIVLEQLPRAGEKIKRGRIAILKVSS”, the “soluble fraction (log2)” value is -0.26.
Turning to “HMPPDIKVVGVTVASDPRASFAMLSSNGKTLSYRVNDLIEGTEYHLIKVEAAAITIATAGGQSTQIAF”, the “soluble fraction (log2)” value was -0.585.
“HMTPDDSYIAGYAAGILKHQFLIDAPELIVRNGTITIPADKVSAGDRAKVVQILSGIPGVTRVEVG”: the “soluble fraction (log2)” value was -0.0502.
Turning to “HMPIGENIKRLRIMHGLSQKELAQIAGVSDKAVSTWENGTKEPRMGAVQKITGYFGLKKSNLIEDNGL”, the “soluble fraction (log2)” value is -0.0331.
Take “HMNKRYKVQVTTDNLKIRKGAGTSYPVVGHITDKGTYTIVETSGKWGKLLSGAGWIYLSYTKK”: the “soluble fraction (log2)” value was -1.76.
Turning to “HMKNELNSKLIISIKEALPPQIKVATYLMDLLSLGREAVYRRIRGDVSFDLEELSIISKALNISIDDVL”, the “soluble fraction (log2)” value was -4.15.
In the case of “HMDKAALGQKLRQARLDKGYTQQSLSEKADIGEVYLSEIERGLKMPSMNLFIKLITALDISADYILR”, the “soluble fraction (log2)” value is -1.44.
As for “HMLQVRRILQLLADGYSKRQISQQTAVSRNTIDSYEDRFHLTGKSYQELLSMEDGELSGIVYP”, the “soluble fraction (log2)” value is -0.424.
As to “HMSSLREQVADALRAHLVSGRMRPGVLYSAPKLAAEFGVSATPVREAMLDLVSEGLVDVVRNKGFRVT”, the “soluble fraction (log2)” value was -0.344.
For the sequence “HMKIVQHQLQLPVHVAGKFKGMFYKSDFVMSEDYDDDGNMILAVRLPLVDWNKFLKRTDNELSQYIKVTP”, the “soluble fraction (log2)” value is -0.858.
The figure for “HMEDIVDLVVEPEAAGRRLDAWLASRIERLSRSRIKALIESGHVAIGGATIVEAKKPVNSGDVVQLSVPEG” is 0.0215.
Consider “HMNDRRQDVFELLKSSERPVSAADLAHKFGVTRQVIVADIALLRASDIDIVSTNRGYILKANL”, for which the “soluble fraction (log2)” value was -1.49.
The figure for “HMFPELEPDEQLIADLLRKTNNLQINIITVRTGLPINRVTALLFQMEMKGVVRPLAGGTYHLLV” is -0.108.
Turning to “HMIPDPEKVMFDGGIRLLTQAGITEGKARSILGKWKRDHETERIIAALGAAQREGAIEPVSFIERVLRN”, the “soluble fraction (log2)” value is -0.0153.
As for “HMYMFSGQRLKSLRKEKKMSQEKLGSLLNISKVAVSNWENAKSFPTMDNLNELAKVLEVEPHYF”, the “soluble fraction (log2)” value is -1.16.
In the case of “HMEHNDPEVERTMFQGLEALKLQLFEKAFGHFSLLIKLAPDYAEAWNKRATVLYLMGRFKESESDVMRTLE” it was 0.0585.
In the case of “HMSHANAALTPRARLRLAKLIVEEHWPVATAAKMFMVSPPTARKWATRFRAEGPAGMADRSSRP”, the “soluble fraction (log2)” value is -1.46.
As for “HMQFLGKVTVTHARQANLRAQPSMDAAIVGKVNPGEVYNVVSIPKTSWYEIQLQNGKTVFIAAGMVSFRM”, the “soluble fraction (log2)” value is -0.557.
On to “HMKTKHISIAEGMSLYTRDRSPFYWGYLNIEGVIHKKSLKTDVVDEAIKLLSIWKNELLNSITK”, for which the “soluble fraction (log2)” value was -1.28.
As to “HMELDREALSDGLRRLSQLLAEDDIESRTLFRELAPGLKEQLGDDAVEKLAGHISRYEFEQAGALLATSG”, the “soluble fraction (log2)” value was -0.0341.
On to “HMSSARKVTVRGVRELPGIFMEKAEILDDGVRFFYRGEMEKLIGALQGLPIRDLTITEPDLEEVFLHFY”, for which the “soluble fraction (log2)” value is -1.09.
On to “HMKKPIYLTIANDIEKKIFNNDYPKNERLPSERNLAEEYGVTRMTIRNSIEYLVSKGLLEKRLGSGNYVKR”, for which the “soluble fraction (log2)” value is -0.646.
As to “HMEYSYKLIDLLVDRFSEEGVDPEEAREYINLFHRFSQGLDPDKRDITKYSWDELYRTVNDKKDS”, the “soluble fraction (log2)” value came out at 0.107.
On to “HMRPADTAAMLKYLSSGAVKGIGGALAGRIIEAFGDESIKVIEEDPARLATVKGITLKKAKEISEEMQRVN”, for which the “soluble fraction (log2)” value stood at 0.0712.
With “HMAPEQWYVLTSGQLPKGPYRLRHIVAMSKGDNWLVARKGAEQWTPLRHLPEFRQAQEANEYIQAIS”, the “soluble fraction (log2)” value is -0.968.
